Results from patent US20180117174A1 (GANYMED PHARMACEUTICALS, published 2018).

Assays:
[1] = target: T1, human claudin 18 splice variant 2 (CLDN18.2) (human); experiment: flow cytometry (Table 6); APC-conjugated secondary antibody; binding assay 1
T1 construct: also called claudin 18 isotype 2

[2] = target: T1, human claudin 18 splice variant 2 …; experiment: flow cytometry (Table 6); APC-conjugated secondary antibody; binding assay 1; normalized to IMAB362
[3] = target: human claudin 18 splice variant 1 (CLDN18.1) (human, UniProt P56856 1-261); experiment: flow cytometry, HEK293 cells stably expressing CLDN18.1 (column 'CLDN18.1 reactive')
[4] = target: T1, human claudin 18 splice variant 2 …; experiment: flow cytometry, HEK293 cells stably expressing CLDN18.2; APC-conjugated secondary antibody; binding assay 3
[5] = target: T1, human claudin 18 splice variant 2 …; experiment: flow cytometry, HEK293 cells stably expressing CLDN18.2; APC-conjugated secondary antibody; binding assay 3; normalized to IMAB362

EC50 [1] [µg/mL] | Max. binding [MFI] [1] [MFI] | EC50 normalized [%] [2] [%] | Max. binding normalized [%] [2] [%] | binding result [3] | EC50 [4] [µg/mL] | Max. binding [MFI] [4] [MFI] | EC50 normalized [%] [5] [%] | Max. binding normalized [%] [5] [%] | Binder
18.9 | 15000 | 3240 | 81 | – | – | – | – | – | chim mAB308 (antibody, V domains shown) VH: QVQLQQSGPELVKPGASVKMSCKASGYTFTDYVISWVKQRTGQGLEWIGEIYPGSGSTYYNEKFKGKATLTADKSSNTAYMQLSSLTSEDSAVYFCARGVLLRAMDYWGQGTSVTVSS VL: DIVMSQSPSSLAVSAGEKVTMSCKSSQSLLNSRTRKNYLAWYQQKPGQSPKLLIYWASTRESGVPDRFTGSGSGTDFTLTISSVQAEDLAVYYCKQSYNLYTFGGGTKLEIKR
60 | 4390 | 10300 | 24 | – | – | – | – | – | chim mAB279 (antibody, V domains shown) VH: QVQLQQSGAELARPGASVKLSCKASGYTFTDYYINWVKQRTGQGLEWIGEIYPGSGNTYYNEKFKGKATLTADKSSSTAYMQLSSLTSEDSAVYFCARSYGAFDYWGQGTTLTVSS VL: DIVMTQSQKFMSTSVGDRVSITCKASQNVRTAVAWYQQKPGQSPKALIYLASNRHTGVPDRFTGSGSGTDFTLTISNVQSEDLADYFCLQHWNYPLTFGGGTKLEIKR
– | – | – | – | no binding | 0.027 | 118 | 4 | 1 | mu mAB279 (antibody, mouse IgG2a, V domains shown, mouse IgG2a kappa) VH: QVQLQQSGAELARPGASVKLSCKASGYTFTDYYINWVKQRTGQGLEWIGEIYPGSGNTYYNEKFKGKATLTADKSSSTAYMQLSSLTSEDSAVYFCARSYGAFDYWGQGTTLTVSS VL: DIVMTQSQKFMSTSVGDRVSITCKASQNVRTAVAWYQQKPGQSPKALIYLASNRHTGVPDRFTGSGSGTDFTLTISNVQSEDLADYFCLQHWNYPLTFGGGTKLEIK
32.3 | 4080 | 5540 | 22 | – | – | – | – | – | chim mAB62 (antibody, V domains shown) VH: QVQLQQSGAELMKPGASVKISCKATGYTFSSYWIEWVKQRPGHGLEWIGEILPGSGSTNYNEKFKGKATFTADTSSNTAYMQLSSLTSEDSAVYYCARYDYPWFAYWGQGTLVTVSA VL: QIVLTQSPAIMSASPGEKVTITCSASSSVSYMHWFQQKPGTSPKLWIYSTSNLASGVPARFSGSGSGTSYSLTISRMEAEDAATYYCQQRSSYPPTFGGGTKLEIKR
– | – | – | – | no binding | 27.9 | 2800 | 4280 | 35 | mu mAB62 (antibody, mouse IgG2a, V domains shown, mouse IgG2a kappa) VH: QVQLQQSGAELMKPGASVKISCKATGYTFSSYWIEWVKQRPGHGLEWIGEILPGSGSTNYNEKFKGKATFTADTSSNTAYMQLSSLTSEDSAVYYCARYDYPWFAYWGQGTLVTVSA VL: QIVLTQSPAIMSASPGEKVTITCSASSSVSYMHWFQQKPGTSPKLWIYSTSNLASGVPARFSGSGSGTSYSLTISRMEAEDAATYYCQQRSSYPPTFGGGTKLEIK
